Patent publication US20260008852A1 (CRYSTAL BIOSCIENCE, published 2026)

T1: his-tagged B7-H3 (UniProt Q5ZPR3-2 29-245, limits assumed)
T1 construct: also called CD276; not shown: His tag
T1 sequence (looked up): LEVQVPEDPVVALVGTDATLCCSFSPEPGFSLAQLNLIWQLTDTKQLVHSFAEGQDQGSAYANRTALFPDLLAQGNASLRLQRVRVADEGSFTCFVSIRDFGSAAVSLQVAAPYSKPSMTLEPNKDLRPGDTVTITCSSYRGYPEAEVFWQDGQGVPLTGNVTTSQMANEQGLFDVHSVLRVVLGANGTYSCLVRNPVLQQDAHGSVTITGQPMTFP


The binders below were run against T1, his-tagged B7-H3 (assay: SPR, Carterra LSA; binder captured by anti-human Fc, his-tagged B7-H3 injected).
Protocol: Binding affinities of anti-B7-H3 antibodies to B7-H3 were measured by Surface Plasmon Resonance (SPR) on a Carterra LSA instrument. Goat anti-human Fc antibody was amine coupled to a HC30M chip. ScFv-Fc supernatants were diluted 30-fold with HBSTE and were captured by the anti-human Fc coupled HC30M chip. A 1:2 dilution series of his-tagged B7-H3, starting at 400 nM, was injected onto the chip for binding. Data was analyzed using the Carterra TM Kinetics software.

Kd [nM] | kon [M⁻¹ s⁻¹] | koff [s⁻¹] | Binder
1 | 166000 | – | 40633p1.1.A6 scFv-Fc (scFv, V domains shown) VH: EVQLLESGGGLVQPGGSLRLSCAASGFSFSNYDMSWVRQAPGKGLEWVAGIRSGSRTYYADSVKGRFTISRDNSKNTLYLQMNSLRAEDTATYYCGRYFNMDVWGQGTTVTVSS VL: QSVLTQPPSASGTPGQRVTISCSGSTFNIGTNLVHWYQQLPGTAPKLLIYLTDRRPSGVPDRFSGSKSGTSASLAISGLQSEDEANYYCATWDDSLNSFLFGGGTKLTVL
0.113 | 411000 | – | 40633p1.1.G7 scFv-Fc (scFv, V domains shown, Tested as scFv-Fc supernatant) VH: EVQLLESGGGLVQPGGSLRLSCAASGFTFSGSAMNWVRQAPGKGLEWVSAINSGGTTIYYADSVKGRFTVSRDNSKNTLYLQMNSLRAEDTAVYYCVKLDFYYGMDVWGEGTTVTVSS VL: QSVVTQPPSASGTPGQRVTVSCSGSSSNVGSKYVQWYQQLPGTAPKLLIYATDRRPSGVPDRFSGSKSGTSASLAISGLQSEDEADYYCASWDDSLNAWVFGGGTKLTVL
20.2 | 349000 | 0.01 | 40633p1.1.B12 scFv-Fc (scFv, V domains shown) VH: EVQLLESGGGLLQPGGSLRLSCAASGFSFSSYGMHWVRQAPGKGLEWVAAINSDGSRIYYADSVKGRFTISRDNSKNTLYLQMNSLRAEDTAVYYCTKYYYHYAMDVWGQGTTVTVSS VL: QSVLTQPPSASGTPGQRVTISCSGSRSDIGATTVNWYQQLPGTAPKLLTYQSHLRPSGVPDRFSGSKSGTSASLAISGLQSEDEADYYCASWDASLNTWVFGGGTKLTVL
0.248 | 349000 | – | 40633p1.1.G10 scFv-Fc (scFv, V domains shown) VH: EVQLLESGGGLVEPGGSLRLSCAASGFSFSSYGMHWVRQAPGKGLDWVAVINGEGSGTYYADSVKGRFTISRDNSKSTLYLQMNSLRAEDTAVYYCTKYYYNYAMDVWGQGTTVTVSS VL: QSVLTQPPSASGTPGQRVTISCSGSRTDIGTTSVNWYQQLPGTAPKLLIYQSHQRPSGVPDRFSGSKSGTSASLAISGLQSEDEADYYCASWDASQNTWVFGGGTKLTVL
1.44 | 422000 | – | 40633p1.2.A10 scFv-Fc (scFv, V domains shown, Tested as scFv-Fc supernatant) VH: EVQLLESGGGLVQPGGSLRLSCAASGFTVSYYGMSWVRQAPGKGLEWVSVIKQDGSEEYYADSVKGRFTISRDNSKNTLYLQMNSLRAEDTAVYYCARHWNDYSNGMNVWGQGTTVTVSS VL: QSVLTQPPSASGTPGQRVTISCSGSTSNVGDRYVYWYQQLPGTAPKLLIYLDDQRPSGVPDRFSGSKSGTSASLAISGLQSEDEADYYCASWDASLNGWVFGGGTKLTVL
> 400 | 2030 | 0.65 | 40633p1.1.E3 scFv-Fc (scFv, V domains shown, Tested as scFv-Fc supernatant) VH: EVQLLESGGGLVQPGGSLRLSCAASGFTVSYYGMSWVRQAPGKGLEWVSAIKQDGSEKYYADSVKGRFTISRDNSKNTLYLQMNSLRAEDTAVYYCARHWNDYSNAMNVWGQGTTVTVSS VL: not shown
437 | 141000 | 0.06 | 40633p1.1.G5 scFv-Fc (scFv, V domains shown, Tested as scFv-Fc supernatant) VH: EVQLLESGGGLVQPGGSLRLSCAASGFIVNYYGMSWVRQPPGKGLEWVSAIKQDGSEKYYADSVKGRFTISRDNSKTTLYLQMNSLRAEDTAVYYCARHWNDYSNGMNVWGQGTTVTVSS VL: QSVLTQPPSASGTPGQRVTISCSGSWSNIGSYNSHWYQKLPGTAPKLLIYTTDRRPSGVPDRFSGSKSGTSASLAISGLQSEDEADYYCGTWDDSLNVWVFGGGTKLTVL
1.48 | 434000 | – | 40633p1.1.G11 scFv-Fc (scFv, V domains shown, Tested as scFv-Fc supernatant) VH: EVQLLESGGGLVQPGGSLRLSCAASGFTVSYYGMSWVRQAPGKGLEWVSVIKQDGSEEYYADSVKGRFTISRDNSKNTLYLQMNSPRAEDTAVYYCARHWNDYSNGMNVWGQGTTVTVSS VL: QSVLTQPPSASGTPGQRVTISCSGSTSNVGDRYVYWYQQLPGTAPKLLIYLDDQRPSGVPDRFSGSKSGTSASLAISGLQSEDEADYYCASWDASLNGWVFGGGTKLTVL
3.62 | 371000 | – | 40633p1.1.A7 scFv-Fc (scFv, V domains shown, Tested as scFv-Fc supernatant) VH: EVQLLESGGGLVQPGGSLRLSCAASGFTVSYYGMSWVRQAPGKGLEWVSAIKQDGSEKYYADSVKGRFTISRDNSKNTLYLQMNSLRAEDTAVYYCARHWNDYSNAMNVWGQGTTVTVSS VL: QSVLTQPPSASGTPGQRVTISCSGSTSNIGRESVYWYQQLPGTAPKLLIYTIDQRPSGVPDRFSGSKSGTSASLAISGLQSEDEAVYYCASWDASLNGWVFGGGTKLTVL
27.6 | 307000 | 0.01 | 40633p1.2.F3 scFv-Fc (scFv, V domains shown, Tested as scFv-Fc supernatant) VH: EVQLLESGGGLVQPGGSLRLSCAASGFTVSYYGMSWVRQAPGKGLEWVSVIKQDGSEEYYADSVKGRFTISRDNSKNTLYLQMNSLRAEDTAVYYCARHWNDYSNGMNVWGQGTTVTVSS VL: not shown
8 | 124000 | – | 40633p1.2.E1 scFv-Fc (scFv, V domains shown, Tested as scFv-Fc supernatant) VH: EVQLLESGRGLVQPGGSLRLSCAASGFTVSYYGMSWVRQAPGKGLEWVSVIKQDGSEEYYADSVKGRFTISRDNSKNTLYLQMNSLRAEDTAVYYCARHWNDYSNGMNVWGQGTTVTVSS VL: QSVLTQPPSASGTPGQRVTISCSGSTSNVGDRYVYWYQQLPGTAPKLLIYLDDQRPSGVPDRFSGSKSGTSASLAISGLQSEDEADYYCASWDASLNGWVFGGGTKLTVL
20.7 | 33500 | – | 40633p1.2.C3 scFv-Fc (scFv, V domains shown, Tested as scFv-Fc supernatant) VH: EVQLLESGGGLVQPGGSLRLSCAASGFTVSYYGMSWVRQAPGKGLEWVSAIKQDGSEKYYADSVKGRFTISRDNSKNTLYLQMNSLRAEDTAVYYCARHWNDYSNAMNVWEQGTTVTVSS VL: QSVLTQPPSASGTPGQRVTISCSGSNSNVGGNYVSWYQQLPGTAPKLLIYRNSQRPSGVPDRFSGSKSGTSASLAISGLQSEDEAVYYCASWDASLNGWVFGGGTKLTVL
13.2 | 277000 | – | 40633p1.1.D11 scFv-Fc (scFv, V domains shown, Tested as scFv-Fc supernatant) VH: EVQLLESGGGLVQPGGSLRLSCAASGFTFRSYAMSWVRQAPGKGLEWVAYIGSSGGTTYYADSVKGRFTISRDNSKNTLYLQMNSLRAEDTAVYYCVKESYYYMDVWGQGTTVTVSS VL: QSVLTQPPSASGTPGQRVTISCSATISNIDINRVSWYQQLPGTAPKLLIFNSQRPSGVPDRFSGSKSGTSASLAISGLQSEDEADYYCATWDDSLNSWVFGGGTKLTVL
298 | 108000 | 0.03 | 40633p1.1.F2 scFv-Fc (scFv, V domains shown, Tested as scFv-Fc supernatant) VH: EVQLLESGGGLVQPGGSLRLSCVASGLTFNGFAMTWVRQAPGKGLEWVSGISWNSGSIYYADSVKGRFTISRDNSKNTVYLQMSSLRAEDTAIYYCAKNWNDYYNSMDVWGQGTTVTVSS VL: QSVLTQPPSASGTPGQRVTISCSGSRSNIGTKYVYWYQQFPGTAPKLLIYTTDRRPSGVPDRFSGSKSGTSASLAISGLQSEDEADYYCSAWDDRLNAWVFGGGTKLTVL
142 | 6880 | – | 40633p1.1.E6 scFv-Fc (scFv, V domains shown) VH: EVQLLESGGGLVQPGGSLRLSCAASGLTFSSYAMNWVRQAPGKGLEWVAGIGGSGSSTYHTDSVKGRFTISRDNSKNTLYLQMSSLRAEDAAVYYCAKEDHWSGGMDVWGQGTTVTVSS VL: not shown
524 | 73300 | 0.04 | 40633p1.1.G3 scFv-Fc (scFv, V domains shown) VH: EVQLLESGGGLVQPGGSLRLSCAASGLTFSSYAMNWVRQAPGKGLEWVAGIGGSGSSTYHTDSVKGRFTISRDNSKNTLYLQMNSLRAEDAAVYYCAKEDHWSGGMDVWGQGTTVTVSS VL: not shown
17.4 | 714000 | 0.01 | 40633p1.1.A11 scFv-Fc (scFv, V domains shown) VH: EVQLLESGGDLVQPGGSLRLSCAASGFTFNTYWMNWVRQAPGKGLEWVAGINSKGGVTYYADSVKGRFTISRDNSKNTLYLQMNSLRAEDTAVYYCADWNDYDIMDVWGQGTTVTVSS VL: QSVLTQPPSASGTPGQTITISCSGSSSNVGRRTVNWYQQLPGTAPKLLIYTNAQRPSGVPDRFSGSKSGTSASLAISGLQSEDEADYYCATWDDSLNAWVFGGGTKLTVL
3.95 | 523000 | – | 40633p1.1.E4 scFv-Fc (scFv, V domains shown, Tested as scFv-Fc supernatant) VH: EVQLLESGGGLVQPGGSLRLSCAASGFTFSSYWMSWVRQAPGKGLEWVSGISSSGSATYYADSVKGRFTISRDNSKNTLYLQMNSLRAEDTAVYYCARWNDYDIMDVWGQGTTVTVSS VL: not shown
6.42 | 360000 | – | 40633p1.1.B3 scFv-Fc (scFv, V domains shown, Tested as scFv-Fc supernatant) VH: EVQLLESGGGLVQPGGSLRLSCAASGFTVSYYGMSWVRQAPGKGLEWVSAIKQDGSEKYYADSVKGRFTISRDNSKNTLYLQMNSLRAEDTAVYYCARHWNDYSNAMNVWGQGTTVTVSS VL: QSVLTQPPSASGTPGQRVTISCSGSTSNIGRESVYWYQQLPGTAPKLLIYTIDQRPSGVPDRFSGSKSGTSASLAISGLQSEDEADYYCGTWDDSLNAWVFGGGTKLTVL
5.69 | 402000 | – | 40633p1.2.D7 scFv-Fc (scFv, V domains shown, Tested as scFv-Fc supernatant) VH: EVQLLESGGSLVQPGGSLRLSCAASGFTFSSYWMSWVRQAPGKGLEWVSGISSSGSATYYADSVKGRFTISRDNSKNTLYLQMNSLRAEDTAVYYCARWNDYDIMDVWGQGTTVTVSS VL: not shown
1.03 | 481000 | – | 40633p1.1.C11 scFv-Fc (scFv, V domains shown, Tested as scFv-Fc supernatant) VH: EVQLLESGGGLVQPGGSLRLSCAASGFTFSSYWMSWVRQAPGKGLEWVAGINRNGGTTYYADSVKGRFTISRDNSKNTLYLQMNSLRAEDTAVYYCARWNDYDIMDVWGQGTTVTVSS VL: not shown
